Molecular target: hB7-1-FLAG (human) (UniProt P33681)
Experiment: flow cytometry, seven transient transfections of 293 cells, mean±SEM; used by the filing as a measure of expression

hB7-1-FLAG (human), sequence (P33681 other isoform, or with tags, fused parts or gaps): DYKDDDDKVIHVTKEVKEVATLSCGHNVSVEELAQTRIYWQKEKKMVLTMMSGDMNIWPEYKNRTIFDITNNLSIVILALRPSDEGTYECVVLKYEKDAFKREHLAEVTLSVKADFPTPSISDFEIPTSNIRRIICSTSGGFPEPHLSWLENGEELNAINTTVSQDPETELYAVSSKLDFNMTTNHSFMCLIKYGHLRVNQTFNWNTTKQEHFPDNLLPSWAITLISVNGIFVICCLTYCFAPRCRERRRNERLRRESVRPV

- mean fluorescence intensity (MFI): 55
Substance: FLAG-specific mAb M2 (antibody)

Reference: patent US20100261660A1
